Assay results published in US20120172295A1.
Non-standard residues stand in square brackets, D forms with d. No end group written: not given here. *: point of attachment. Palmitoyl = CCCCCCCCCCCCCCCC(=O)*; Myristoyl = CCCCCCCCCCCCCC(=O)*; Aib = CC(C)(N)C(=O)O

Assays:
Test in all cases: cell-based or functional assay
GIP receptor, P48546 = molecular target: T1, GIP receptor, P48546
T1 chain: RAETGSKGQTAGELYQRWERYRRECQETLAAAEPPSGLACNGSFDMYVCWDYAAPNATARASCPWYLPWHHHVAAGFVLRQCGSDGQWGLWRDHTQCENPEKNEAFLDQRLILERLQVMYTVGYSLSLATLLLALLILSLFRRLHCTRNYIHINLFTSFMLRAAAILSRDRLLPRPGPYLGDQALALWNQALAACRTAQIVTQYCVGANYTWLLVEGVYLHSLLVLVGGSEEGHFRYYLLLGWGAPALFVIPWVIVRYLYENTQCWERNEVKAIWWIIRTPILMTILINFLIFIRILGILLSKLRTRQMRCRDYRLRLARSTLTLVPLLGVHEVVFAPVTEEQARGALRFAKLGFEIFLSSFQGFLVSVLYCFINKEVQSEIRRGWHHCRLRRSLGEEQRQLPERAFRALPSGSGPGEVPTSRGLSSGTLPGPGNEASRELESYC

[1] = molecular target: glucagon receptor, P47871
Sequence of glucagon receptor, P47871 (P47871 26-477 limits assumed): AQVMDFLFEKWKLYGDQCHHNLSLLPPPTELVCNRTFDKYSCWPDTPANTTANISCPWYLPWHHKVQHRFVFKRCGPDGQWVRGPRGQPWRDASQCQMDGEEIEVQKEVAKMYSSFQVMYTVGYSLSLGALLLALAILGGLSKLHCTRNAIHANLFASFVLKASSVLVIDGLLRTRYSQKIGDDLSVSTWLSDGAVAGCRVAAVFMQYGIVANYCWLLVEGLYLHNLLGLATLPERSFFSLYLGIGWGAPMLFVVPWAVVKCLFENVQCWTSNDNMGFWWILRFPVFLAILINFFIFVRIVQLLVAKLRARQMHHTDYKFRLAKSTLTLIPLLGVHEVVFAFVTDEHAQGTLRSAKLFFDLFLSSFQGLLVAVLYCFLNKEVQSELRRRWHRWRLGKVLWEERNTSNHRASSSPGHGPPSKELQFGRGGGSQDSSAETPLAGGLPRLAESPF

GLP-1 receptor, P43220 = molecular target: T2, GLP-1 receptor, P43220
T2 chain: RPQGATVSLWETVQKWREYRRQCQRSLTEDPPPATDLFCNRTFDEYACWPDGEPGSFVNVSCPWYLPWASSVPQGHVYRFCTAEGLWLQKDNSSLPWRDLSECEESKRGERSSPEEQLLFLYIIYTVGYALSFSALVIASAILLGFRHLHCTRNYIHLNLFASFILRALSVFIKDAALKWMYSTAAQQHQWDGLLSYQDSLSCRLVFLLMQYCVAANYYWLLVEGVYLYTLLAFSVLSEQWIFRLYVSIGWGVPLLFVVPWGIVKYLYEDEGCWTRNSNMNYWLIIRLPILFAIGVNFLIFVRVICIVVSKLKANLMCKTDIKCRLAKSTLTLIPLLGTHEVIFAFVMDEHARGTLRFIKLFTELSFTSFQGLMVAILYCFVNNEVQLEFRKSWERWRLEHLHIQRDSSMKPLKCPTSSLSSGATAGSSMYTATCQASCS

H[Aib]QGTFTSDYSKYLDEQAAKEFIC(PEG 40 kDa)WLMNGGPSSGAPPPSK(Myristoyl)-NH2 [mt-349]
% relative activity (GIP receptor, P48546): 0.18% | EC50 (GIP receptor, P48546): 1.99 nM | % relative activity [1]: 3.82% | EC50 [1]: 0.549 nM | % relative activity (GLP-1 receptor, P43220): 286% | EC50 (GLP-1 receptor, P43220): 0.0022 nM

B1: mt-362 (peptide)
peptide: H[Aib]QGTFTSDYSIYLD[Aib]QAAKEFVNWLMNGGPSSGAPPPSK(Palmitoyl)-NH2
modifications: N-terminus assumed
SMILES: CCCCCCCCCCCCCCCC(=O)NCCCC[C@H](NC(=O)[C@H](CO)NC(=O)[C@@H]1CCCN1C(=O)[C@@H]1CCCN1C(=O)[C@@H]1CCCN1C(=O)[C@H](C)NC(=O)CNC(=O)[C@H](CO)NC(=O)[C@H](CO)NC(=O)[C@@H]1CCCN1C(=O)CNC(=O)CNC(=O)[C@H](CC(N)=O)NC(=O)[C@H](CCSC)NC(=O)[C@H](CC(C)C)NC(=O)[C@H](Cc1c[nH]c2ccccc12)NC(=O)[C@H](CC(N)=O)NC(=O)[C@@H](NC(=O)[C@H](Cc1ccccc1)NC(=O)[C@H](CCC(=O)O)NC(=O)[C@H](CCCCN)NC(=O)[C@H](C)NC(=O)[C@H](C)NC(=O)[C@H](CCC(N)=O)NC(=O)C(C)(C)NC(=O)[C@H](CC(=O)O)NC(=O)[C@H](CC(C)C)NC(=O)[C@H](Cc1ccc(O)cc1)NC(=O)[C@@H](NC(=O)[C@H](CO)NC(=O)[C@H](Cc1ccc(O)cc1)NC(=O)[C@H](CC(=O)O)NC(=O)[C@H](CO)NC(=O)[C@@H](NC(=O)[C@H](Cc1ccccc1)NC(=O)[C@@H](NC(=O)CNC(=O)[C@H](CCC(N)=O)NC(=O)C(C)(C)NC(=O)[C@@H](N)Cc1c[nH]cn1)[C@@H](C)O)[C@@H](C)O)[C@@H](C)CC)C(C)C)C(N)=O
% relative activity (GIP receptor, P48546): 3.95% | EC50 (GIP receptor, P48546): 0.0782 nM | % relative activity [1]: 83.2% | EC50 [1]: 0.0768 nM | % relative activity (GLP-1 receptor, P43220): 241% | EC50 (GLP-1 receptor, P43220): 0.102 nM

B2: mt-361 (peptide)
peptide: H[Aib]QGTFTSDYSIYLD[Aib]QAAKEFVNWLMNGGPSSGAPPPSK-NH2
modifications: N-terminus assumed
SMILES: CC[C@H](C)[C@H](NC(=O)[C@H](CO)NC(=O)[C@H](Cc1ccc(O)cc1)NC(=O)[C@H](CC(=O)O)NC(=O)[C@H](CO)NC(=O)[C@@H](NC(=O)[C@H](Cc1ccccc1)NC(=O)[C@@H](NC(=O)CNC(=O)[C@H](CCC(N)=O)NC(=O)C(C)(C)NC(=O)[C@@H](N)Cc1c[nH]cn1)[C@@H](C)O)[C@@H](C)O)C(=O)N[C@@H](Cc1ccc(O)cc1)C(=O)N[C@@H](CC(C)C)C(=O)N[C@@H](CC(=O)O)C(=O)NC(C)(C)C(=O)N[C@@H](CCC(N)=O)C(=O)N[C@@H](C)C(=O)N[C@@H](C)C(=O)N[C@@H](CCCCN)C(=O)N[C@@H](CCC(=O)O)C(=O)N[C@@H](Cc1ccccc1)C(=O)N[C@H](C(=O)N[C@@H](CC(N)=O)C(=O)N[C@@H](Cc1c[nH]c2ccccc12)C(=O)N[C@@H](CC(C)C)C(=O)N[C@@H](CCSC)C(=O)N[C@@H](CC(N)=O)C(=O)NCC(=O)NCC(=O)N1CCC[C@H]1C(=O)N[C@@H](CO)C(=O)N[C@@H](CO)C(=O)NCC(=O)N[C@@H](C)C(=O)N1CCC[C@H]1C(=O)N1CCC[C@H]1C(=O)N1CCC[C@H]1C(=O)N[C@@H](CO)C(=O)N[C@@H](CCCCN)C(N)=O)C(C)C
% relative activity (GIP receptor, P48546): 0.29% | EC50 (GIP receptor, P48546): 1.05 nM | % relative activity [1]: 3.61% | EC50 [1]: 1.77 nM | % relative activity (GLP-1 receptor, P43220): 226% | EC50 (GLP-1 receptor, P43220): 0.0109 nM

B3: mt-346 (peptide)
peptide: H[Aib]QGTFTSDYSKYLDEQAAKEFICWLMNGGPSSGAPPPSK-NH2
modifications: N-terminus assumed
SMILES: CC[C@H](C)[C@H](NC(=O)[C@H](Cc1ccccc1)NC(=O)[C@H](CCC(=O)O)NC(=O)[C@H](CCCCN)NC(=O)[C@H](C)NC(=O)[C@H](C)NC(=O)[C@H](CCC(N)=O)NC(=O)[C@H](CCC(=O)O)NC(=O)[C@H](CC(=O)O)NC(=O)[C@H](CC(C)C)NC(=O)[C@H](Cc1ccc(O)cc1)NC(=O)[C@H](CCCCN)NC(=O)[C@H](CO)NC(=O)[C@H](Cc1ccc(O)cc1)NC(=O)[C@H](CC(=O)O)NC(=O)[C@H](CO)NC(=O)[C@@H](NC(=O)[C@H](Cc1ccccc1)NC(=O)[C@@H](NC(=O)CNC(=O)[C@H](CCC(N)=O)NC(=O)C(C)(C)NC(=O)[C@@H](N)Cc1c[nH]cn1)[C@@H](C)O)[C@@H](C)O)C(=O)N[C@@H](CS)C(=O)N[C@@H](Cc1c[nH]c2ccccc12)C(=O)N[C@@H](CC(C)C)C(=O)N[C@@H](CCSC)C(=O)N[C@@H](CC(N)=O)C(=O)NCC(=O)NCC(=O)N1CCC[C@H]1C(=O)N[C@@H](CO)C(=O)N[C@@H](CO)C(=O)NCC(=O)N[C@@H](C)C(=O)N1CCC[C@H]1C(=O)N1CCC[C@H]1C(=O)N1CCC[C@H]1C(=O)N[C@@H](CO)C(=O)N[C@@H](CCCCN)C(N)=O
% relative activity (GIP receptor, P48546): 0.34% | EC50 (GIP receptor, P48546): 0.796 nM | % relative activity [1]: 3.7% | EC50 [1]: 0.954 nM | % relative activity (GLP-1 receptor, P43220): 367% | EC50 (GLP-1 receptor, P43220): 0.0015 nM

B4: mt-363 (peptide)
peptide: H[Aib]QGTFTSDYSKYLDEQAAKEFIAWLMNGGPSSGAPPPSK-NH2
modifications: N-terminus assumed
SMILES: CC[C@H](C)[C@H](NC(=O)[C@H](Cc1ccccc1)NC(=O)[C@H](CCC(=O)O)NC(=O)[C@H](CCCCN)NC(=O)[C@H](C)NC(=O)[C@H](C)NC(=O)[C@H](CCC(N)=O)NC(=O)[C@H](CCC(=O)O)NC(=O)[C@H](CC(=O)O)NC(=O)[C@H](CC(C)C)NC(=O)[C@H](Cc1ccc(O)cc1)NC(=O)[C@H](CCCCN)NC(=O)[C@H](CO)NC(=O)[C@H](Cc1ccc(O)cc1)NC(=O)[C@H](CC(=O)O)NC(=O)[C@H](CO)NC(=O)[C@@H](NC(=O)[C@H](Cc1ccccc1)NC(=O)[C@@H](NC(=O)CNC(=O)[C@H](CCC(N)=O)NC(=O)C(C)(C)NC(=O)[C@@H](N)Cc1c[nH]cn1)[C@@H](C)O)[C@@H](C)O)C(=O)N[C@@H](C)C(=O)N[C@@H](Cc1c[nH]c2ccccc12)C(=O)N[C@@H](CC(C)C)C(=O)N[C@@H](CCSC)C(=O)N[C@@H](CC(N)=O)C(=O)NCC(=O)NCC(=O)N1CCC[C@H]1C(=O)N[C@@H](CO)C(=O)N[C@@H](CO)C(=O)NCC(=O)N[C@@H](C)C(=O)N1CCC[C@H]1C(=O)N1CCC[C@H]1C(=O)N1CCC[C@H]1C(=O)N[C@@H](CO)C(=O)N[C@@H](CCCCN)C(N)=O
% relative activity (GIP receptor, P48546): 0.73% | EC50 (GIP receptor, P48546): 0.425 nM | % relative activity [1]: 7.76% | EC50 [1]: 0.823 nM | % relative activity (GLP-1 receptor, P43220): 672% | EC50 (GLP-1 receptor, P43220): 0.0037 nM
